How the values were obtained:
[1] = target: T1, N-terminal His-tagged SisHjm (Hjm/Hel308a helicase from Sulfolobus islandicus) (Sulfolobus islandicus, UniProt F0NDL2 1-715); test: SEC
T1 sequence (looked up): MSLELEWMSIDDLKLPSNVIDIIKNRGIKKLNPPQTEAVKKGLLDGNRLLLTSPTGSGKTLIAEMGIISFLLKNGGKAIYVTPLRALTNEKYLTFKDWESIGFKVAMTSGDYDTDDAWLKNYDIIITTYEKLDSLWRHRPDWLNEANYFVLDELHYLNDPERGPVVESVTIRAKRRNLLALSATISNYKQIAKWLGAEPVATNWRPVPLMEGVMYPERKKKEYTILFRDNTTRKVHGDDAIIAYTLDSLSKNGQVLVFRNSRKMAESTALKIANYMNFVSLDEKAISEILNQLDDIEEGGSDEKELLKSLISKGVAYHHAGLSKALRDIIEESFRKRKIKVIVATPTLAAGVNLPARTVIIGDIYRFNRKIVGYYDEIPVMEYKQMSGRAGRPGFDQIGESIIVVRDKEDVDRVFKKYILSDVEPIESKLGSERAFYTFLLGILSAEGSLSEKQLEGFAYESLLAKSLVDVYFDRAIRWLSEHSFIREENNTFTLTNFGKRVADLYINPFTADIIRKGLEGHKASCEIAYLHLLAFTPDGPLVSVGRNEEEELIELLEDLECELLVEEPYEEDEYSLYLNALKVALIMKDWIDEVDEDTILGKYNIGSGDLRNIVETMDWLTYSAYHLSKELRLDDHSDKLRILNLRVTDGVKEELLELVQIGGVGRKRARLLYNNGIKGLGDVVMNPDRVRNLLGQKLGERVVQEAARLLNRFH

SEC = target: the molecule itself; test: SEC

stoichiometry N [1]: ~1 Hjm monomer per PINA hexamer
B1: SisPINA (PIN domain-containing ATPase from Sulfolobus islandicus), recombinant, without tag (enzyme, UniProt F0NID4 1-505, looked up)
chain: MNDLMLDKSALLFGVSKYLEKGIITGNVLIHKSLLAELERESNDGLVSAEIALDEVKKLKDITERILVNFEIVGDDSKKGEANELSREYCLEKGCIIVTADETQKKICDAMGIQYNFLQPLKQGLSFESFFDDETMSLHIKEDTVPRAKKGKPGNWKFVNLSDKPMLSTDVRMIANEIINAVRLIKGSFVEIERRGSLIIQLGNYRVVITRPPLSDGWEITITRPVVRKRLEDYNLDERLIKRLEERAEGIIIAGAPGMGKTTFAQALAEYYMRLGKIVKTIESPRDMHLPPEITQYSKNYAEIGELHDILLLSRPDYTVYDEMRNDEDFKLYVDLRLAGVGMVGVVHATSPIDAIHRFVNRVDIGTIPNILDTIIFINSGNVSKVYTLEMTVKVPAGLKEADLARPVVEIKDLATGNTEYEIYVFGEQTMIVPVNRGITMSNMEFKISKIVNNIIPNATVKYEDGEYVIVIPKEEIGKYNRKLVQRLKRLEKKNNIKIKIKLSD
stoichiometry N (SEC): 6
